T1: human FcγRIIb (human, UniProt P31994 43-217, limits assumed)
T1 construct: also called FcgRIIb; FcγIIB
T1 sequence: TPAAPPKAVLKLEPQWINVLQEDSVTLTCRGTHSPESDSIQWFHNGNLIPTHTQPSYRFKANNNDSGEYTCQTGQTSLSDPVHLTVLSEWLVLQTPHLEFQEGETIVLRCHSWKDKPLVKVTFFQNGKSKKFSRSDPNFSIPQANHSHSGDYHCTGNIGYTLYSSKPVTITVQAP

T2: human FcγRIIa type H (human, UniProt P12318 36-217)
T2 construct: also called FcgRIIaH; FcγRIIa(H)
T2 sequence: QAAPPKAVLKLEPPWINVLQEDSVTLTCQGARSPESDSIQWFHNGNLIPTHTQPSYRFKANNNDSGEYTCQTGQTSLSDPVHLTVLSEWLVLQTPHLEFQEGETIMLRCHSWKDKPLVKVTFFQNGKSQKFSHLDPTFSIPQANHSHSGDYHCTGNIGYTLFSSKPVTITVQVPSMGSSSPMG

T3: human FcγRIIa type R (human, UniProt P12318 36-217)
T3 construct: also called FcgRIIaR; FcγRIIa(R)
T3 chain: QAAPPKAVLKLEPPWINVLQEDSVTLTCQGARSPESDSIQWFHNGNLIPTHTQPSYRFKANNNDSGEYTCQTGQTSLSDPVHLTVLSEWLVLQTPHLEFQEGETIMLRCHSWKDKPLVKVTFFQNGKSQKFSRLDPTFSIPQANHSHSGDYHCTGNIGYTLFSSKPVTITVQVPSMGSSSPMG

B1: IL6R-BP082/IL6R-L (antibody, human IgG1, name in EU numbering)
heavy: QVQLQESGPGLVKPSETLSLTCAVSGHSISHDHAWSWVRQPPGEGLEWIGFISYSGITNYNPSLQGRVTISRDNSKNTLYLQMNSLRAEDTAVYYCARSLARTTAMDYWGEGTLVTVSSASTKGPSVFPLAPSSKSTSGGTAALGCLVKDYFPEPVTVSWNSGALTSGVHTFPAVLQSSGLYSLSSVVTVPSSSLGTQTYICNVNHKPSNTKVDKKVEPKSCDKTHTCPPCPAPDLLGGDSVFLFPPKPKDTLMISRTPEVTCVVVDVSHEDPEVKFNWYVDGVEVHNAKTKPREEQYNSTYRVVSVLTVLHQDWLNGKEYKCKVSNKALPKPIEKTISKAKGQPREPQVYTLPPSRDELTKNQVSLTCLVKGFYPSDIAVEWESNGQPENNYKTTPPVLDSDGSFFLYSKLTVDKSRWQQGNVFSCSVMHEALHNHYTQESLSLSP
light: DIQMTQSPSSLSASVGDRVTITCRASQDISSYLNWYQQKPGKAPKLLIYYTSRLHSGVPSRFSGSGSGTDFTFTISSLQPEDIATYYCQQGNTLPYTFGQGTKVEIK
notes: copies: 2 + 2
B2: IL6R-BP132/IL6R-L (antibody, human IgG1, name in EU numbering)
heavy: QVQLQESGPGLVKPSETLSLTCAVSGHSISHDHAWSWVRQPPGEGLEWIGFISYSGITNYNPSLQGRVTISRDNSKNTLYLQMNSLRAEDTAVYYCARSLARTTAMDYWGEGTLVTVSSASTKGPSVFPLAPSSKSTSGGTAALGCLVKDYFPEPVTVSWNSGALTSGVHTFPAVLQSSGLYSLSSVVTVPSSSLGTQTYICNVNHKPSNTKVDKKVEPKSCDKTHTCPPCPAPDLLGGDSVFLFPPKPKDTLMISRTPEVTCVVVDVSHEDPEVKFNWYVDGVEVHNAKTKPREEQYNSTYRVVSVLTVLHQDWLNGKEYKCKVSNAALPKPIEKTISKAKGQPREPQVYTLPPSRDELTKNQVSLTCLVKGFYPSDIAVEWESNGQPENNYKTTPPVLDSDGSFFLYSKLTVDKSRWQQGNVFSCSVMHEALHNHYTQESLSLSP
light: DIQMTQSPSSLSASVGDRVTITCRASQDISSYLNWYQQKPGKAPKLLIYYTSRLHSGVPSRFSGSGSGTDFTFTISSLQPEDIATYYCQQGNTLPYTFGQGTKVEIK
notes: copies: 2 + 2
B3: IL6R-BP181/IL6R-L (antibody, human IgG1, name in EU numbering)
heavy: QVQLQESGPGLVKPSETLSLTCAVSGHSISHDHAWSWVRQPPGEGLEWIGFISYSGITNYNPSLQGRVTISRDNSKNTLYLQMNSLRAEDTAVYYCARSLARTTAMDYWGEGTLVTVSSASTKGPSVFPLAPSSKSTSGGTAALGCLVKDYFPEPVTVSWNSGALTSGVHTFPAVLQSSGLYSLSSVVTVPSSSLGTQTYICNVNHKPSNTKVDKKVEPKSCDKTHTCPPCPAPDLLGGDSVFLFPPKPKDTLMISRTPEVTCVVVDVSHEDGEVKFNWYVDGVEVHNAKTKPREEQYNSTYRVVSVLTVLHQDWLNGKEYKCKVSNAALPKPIEKTISKAKGQPREPQVYTLPPSRDELTKNQVSLTCLVKGFYPSDIAVEWESNGQPENNYKTTPPVLDSDGSFFLYSKLTVDKSRWQQGNVFSCSVMHEALHNHYTQESLSLSP
light: DIQMTQSPSSLSASVGDRVTITCRASQDISSYLNWYQQKPGKAPKLLIYYTSRLHSGVPSRFSGSGSGTDFTFTISSLQPEDIATYYCQQGNTLPYTFGQGTKVEIK
notes: the list runs over r48 and r49; copies: 2 + 2
B4: IL6R-2B261/IL6R-L (antibody, human IgG1, name in EU numbering)
heavy: QVQLQESGPGLVKPSETLSLTCAVSGHSISHDHAWSWVRQPPGEGLEWIGFISYSGITNYNPSLQGRVTISRDNSKNTLYLQMNSLRAEDTAVYYCARSLARTTAMDYWGEGTLVTVSSASTKGPSVFPLAPSSKSTSGGTAALGCLVKDYFPEPVTVSWNSGALTSGVHTFPAVLQSSGLYSLSSVVTVPSSSLGTQTYICNVNHKPSNTKVDKKVEPKSCDKTHTCPPCPAPDLLGGDSVFLFPPKPKDTLMISRTPEVTCVVVDVSHEDPEVKFNWYVDGVEVHNAKTKPREEQDNSTYRVVSVLTVLHQDWLNGKEYKCKVSNKALPAPIEKTISKAKGQPREPQVYTLPPSRDELTKNQVSLTCLVKGFYPSDIAVEWESNGQPENNYKTTPPVLDSDGSFFLYSKLTVDKSRWQQGNVFSCSVMHEALHNHYTQESLSLSP
light: DIQMTQSPSSLSASVGDRVTITCRASQDISSYLNWYQQKPGKAPKLLIYYTSRLHSGVPSRFSGSGSGTDFTFTISSLQPEDIATYYCQQGNTLPYTFGQGTKVEIK
notes: copies: 2 + 2
B5: IL6R-BF648/IL6R-L (antibody, human IgG1, name in EU numbering)
heavy: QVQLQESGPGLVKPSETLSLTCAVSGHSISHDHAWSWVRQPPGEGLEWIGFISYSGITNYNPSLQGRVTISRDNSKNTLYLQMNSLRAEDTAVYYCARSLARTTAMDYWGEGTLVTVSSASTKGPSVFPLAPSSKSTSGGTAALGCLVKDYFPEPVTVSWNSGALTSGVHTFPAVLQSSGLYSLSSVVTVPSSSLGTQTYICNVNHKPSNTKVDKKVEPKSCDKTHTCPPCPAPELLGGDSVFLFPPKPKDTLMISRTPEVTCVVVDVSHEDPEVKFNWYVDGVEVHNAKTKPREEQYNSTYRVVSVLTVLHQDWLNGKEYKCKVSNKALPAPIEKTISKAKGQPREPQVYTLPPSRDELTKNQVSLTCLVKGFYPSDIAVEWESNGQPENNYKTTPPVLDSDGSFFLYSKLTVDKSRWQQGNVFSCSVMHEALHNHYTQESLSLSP
light: DIQMTQSPSSLSASVGDRVTITCRASQDISSYLNWYQQKPGKAPKLLIYYTSRLHSGVPSRFSGSGSGTDFTFTISSLQPEDIATYYCQQGNTLPYTFGQGTKVEIK
notes: copies: 2 + 2
B6: IL6R-B3/IL6R-L (antibody, human IgG1)
heavy: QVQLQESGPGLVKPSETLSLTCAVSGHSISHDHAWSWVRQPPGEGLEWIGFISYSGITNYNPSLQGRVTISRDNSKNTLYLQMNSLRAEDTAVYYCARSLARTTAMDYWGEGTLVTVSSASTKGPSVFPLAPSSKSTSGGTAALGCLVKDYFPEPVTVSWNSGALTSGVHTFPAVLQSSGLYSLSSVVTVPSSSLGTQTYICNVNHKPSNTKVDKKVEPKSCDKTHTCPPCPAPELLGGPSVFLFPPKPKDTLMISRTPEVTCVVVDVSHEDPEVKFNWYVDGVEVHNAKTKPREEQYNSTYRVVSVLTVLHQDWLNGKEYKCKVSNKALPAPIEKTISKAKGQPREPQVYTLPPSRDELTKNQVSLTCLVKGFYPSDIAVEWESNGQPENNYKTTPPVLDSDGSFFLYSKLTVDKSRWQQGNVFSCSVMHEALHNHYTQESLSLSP
light: DIQMTQSPSSLSASVGDRVTITCRASQDISSYLNWYQQKPGKAPKLLIYYTSRLHSGVPSRFSGSGSGTDFTFTISSLQPEDIATYYCQQGNTLPYTFGQGTKVEIK
notes: IL6R-G1d with K439E (EU numbering); parent polypeptide of the variants; copies: 2 + 2
B7: IL6R-2B253/IL6R-L (antibody, human IgG1, name in EU numbering)
heavy: QVQLQESGPGLVKPSETLSLTCAVSGHSISHDHAWSWVRQPPGEGLEWIGFISYSGITNYNPSLQGRVTISRDNSKNTLYLQMNSLRAEDTAVYYCARSLARTTAMDYWGEGTLVTVSSASTKGPSVFPLAPSSKSTSGGTAALGCLVKDYFPEPVTVSWNSGALTSGVHTFPAVLQSSGLYSLSSVVTVPSSSLGTQTYICNVNHKPSNTKVDKKVEPKSCDKTHTCPPCPAPDLLGGDSVFLFPPKPKDTLMISRTPEVTCVVVDVSHEDPEVKFNWYVDGVEVHNAKTKPREEQYNSTYRVVSVLTVLHQDWLNGKEYKCKMSNKALPAPIEKTISKAKGQPREPQVYTLPPSRDELTKNQVSLTCLVKGFYPSDIAVEWESNGQPENNYKTTPPVLDSDGSFFLYSKLTVDKSRWQQGNVFSCSVMHEALHNHYTQESLSLSP
light: DIQMTQSPSSLSASVGDRVTITCRASQDISSYLNWYQQKPGKAPKLLIYYTSRLHSGVPSRFSGSGSGTDFTFTISSLQPEDIATYYCQQGNTLPYTFGQGTKVEIK
notes: copies: 2 + 2
B8: IL6R-BP151/IL6R-L (antibody, human IgG1, name in EU numbering)
heavy: QVQLQESGPGLVKPSETLSLTCAVSGHSISHDHAWSWVRQPPGEGLEWIGFISYSGITNYNPSLQGRVTISRDNSKNTLYLQMNSLRAEDTAVYYCARSLARTTAMDYWGEGTLVTVSSASTKGPSVFPLAPSSKSTSGGTAALGCLVKDYFPEPVTVSWNSGALTSGVHTFPAVLQSSGLYSLSSVVTVPSSSLGTQTYICNVNHKPSNTKVDKKVEPKSCDKTHTCPPCPAPDYLGDDSVFLFPPKPKDTLMISRTPEVTCVVVDVSHEDPEVKFNWYVDGVEVHNAKTKPREEQYNSTYRVVSVLTVLHQDWLNGKEYKCKVSNAALPRPIEKTISKAKGQPREPQVYTLPPSRDELTKNQVSLTCLVKGFYPSDIAVEWESNGQPENNYKTTPPVLDSDGSFFLYSKLTVDKSRWQQGNVFSCSVMHEALHNHYTQESLSLSP
light: DIQMTQSPSSLSASVGDRVTITCRASQDISSYLNWYQQKPGKAPKLLIYYTSRLHSGVPSRFSGSGSGTDFTFTISSLQPEDIATYYCQQGNTLPYTFGQGTKVEIK
notes: the list runs over r36 and r37; copies: 2 + 2

Key:
Assay in all cases: SPR (Biacore), FcγR over captured antibody; binding amount divided by that of IL6R-BF648/IL6R-L x 100
[1] = target: T4, human FcγRIIIa type V (human, UniProt P08637 17-208, limits assumed)
T4 construct: also called FcgRIIIaV; FcγRIIIa(V)
T4 sequence (P08637 other isoform, or with tags, fused parts or gaps limits assumed): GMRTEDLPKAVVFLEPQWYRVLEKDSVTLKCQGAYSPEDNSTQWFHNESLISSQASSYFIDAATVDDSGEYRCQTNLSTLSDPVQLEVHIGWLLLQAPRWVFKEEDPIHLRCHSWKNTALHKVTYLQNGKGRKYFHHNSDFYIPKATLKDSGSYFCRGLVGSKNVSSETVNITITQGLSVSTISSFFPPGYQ
Procedure: (§1) According to the following method, relative binding activities were calculated for the results of analyzing interactions with the respective FcγRs.

[2] = target: T1, human FcγRIIb
Procedure: as §1

[3] = target: T2, human FcγRIIa type H
Procedure: as §1

[4] = target: T5, human FcγRIa (human, UniProt P12314 16-292, limits assumed)
T5 construct: also called FcgRIa; FcγRI (CD64)
T5 sequence (P12314 16-292 limits assumed): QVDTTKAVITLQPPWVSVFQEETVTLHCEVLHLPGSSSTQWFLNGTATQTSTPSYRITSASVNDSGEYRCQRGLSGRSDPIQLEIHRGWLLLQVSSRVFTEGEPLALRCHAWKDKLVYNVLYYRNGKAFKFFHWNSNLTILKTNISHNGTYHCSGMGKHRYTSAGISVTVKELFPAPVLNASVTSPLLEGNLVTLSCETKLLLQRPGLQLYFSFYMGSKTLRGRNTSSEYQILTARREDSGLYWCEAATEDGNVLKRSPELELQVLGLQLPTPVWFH
Procedure: as §1

[5] = target: T3, human FcγRIIa type R
Procedure: as §1

Row | relative binding activity [1] | relative binding activity [2] | relative binding activity [3] | relative binding activity [4] | relative binding activity [5] | Binder
1 | 87 relative (IL6R-BF648/IL6R-L = 100) | 136 relative (IL6R-BF648/IL6R-L = 100) | 106 relative (IL6R-BF648/IL6R-L = 100) | 74 relative (IL6R-BF648/IL6R-L = 100) | 126 relative (IL6R-BF648/IL6R-L = 100) | B1
2 | 120 relative (IL6R-BF648/IL6R-L = 100) | 150 relative (IL6R-BF648/IL6R-L = 100) | 130 relative (IL6R-BF648/IL6R-L = 100) | – | 191 relative (IL6R-BF648/IL6R-L = 100) | B2
3 | 122 relative (IL6R-BF648/IL6R-L = 100) | – | 150 relative (IL6R-BF648/IL6R-L = 100) | 108 relative (IL6R-BF648/IL6R-L = 100) | 362 relative (IL6R-BF648/IL6R-L = 100) | B3
4 | 87 relative (IL6R-BF648/IL6R-L = 100) | 115 relative (IL6R-BF648/IL6R-L = 100) | 91 relative (IL6R-BF648/IL6R-L = 100) | 100 relative (IL6R-BF648/IL6R-L = 100) | 94 relative (IL6R-BF648/IL6R-L = 100) | B4
5 | 100 relative (IL6R-BF648/IL6R-L = 100) | 100 relative (IL6R-BF648/IL6R-L = 100) | 100 relative (IL6R-BF648/IL6R-L = 100) | 100 relative (IL6R-BF648/IL6R-L = 100) | 100 relative (IL6R-BF648/IL6R-L = 100) | B5
6 | 3260 relative (IL6R-BF648/IL6R-L = 100) | 58 relative (IL6R-BF648/IL6R-L = 100) | 1600 relative (IL6R-BF648/IL6R-L = 100) | 145 relative (IL6R-BF648/IL6R-L = 100) | 625 relative (IL6R-BF648/IL6R-L = 100) | B6
7 | 126 relative (IL6R-BF648/IL6R-L = 100) | 156 relative (IL6R-BF648/IL6R-L = 100) | 207 relative (IL6R-BF648/IL6R-L = 100) | 155 relative (IL6R-BF648/IL6R-L = 100) | 288 relative (IL6R-BF648/IL6R-L = 100) | B7
8 | 221 relative (IL6R-BF648/IL6R-L = 100) | – | 621 relative (IL6R-BF648/IL6R-L = 100) | 39 relative (IL6R-BF648/IL6R-L = 100) | 705 relative (IL6R-BF648/IL6R-L = 100) | B8
